# According to paper PMC4807222 (Structure (London, England : 1993), 2015):
# B1: c-Myc_(1–88) (domain or fragment, human, UniProt P01106-1 1-88, looked up)
# chain: MPLNVSFTNRNYDLDYDSVQPYFYCDEEENFYQQQQQSELQPPAPSEDIWKKFELLPTPPLSPSRRSGLCSPSYVAVTPFSLRGDNDG
# How the values were obtained:
# c-Myc_(1–88) = target: B1; experiment: SPR
# full-length Pin1 (1–163) [1] = target: T1, full-length Pin1 (1–163) (human, UniProt Q13526 1-163); experiment: SPR
# full-length Pin1 (1–163) [2] = target: T1, full-length Pin1 (1–163); experiment: ITC
# T1 sequence (Q13526 whole entry): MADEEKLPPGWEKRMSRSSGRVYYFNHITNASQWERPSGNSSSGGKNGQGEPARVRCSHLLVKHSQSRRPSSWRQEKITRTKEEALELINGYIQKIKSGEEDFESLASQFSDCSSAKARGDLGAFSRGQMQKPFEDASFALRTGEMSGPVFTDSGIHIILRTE
fold weaker affinity than intact Pin1 (c-Myc_(1–88)) [fold],Binder,further results
> 10,"KLPPGWEKRMSRSSGRVYYFNHITNASQWERPSG (domain or fragment, human, UniProt Q13526 6-39, looked up) [Pin1WW (6–39)]",–
–,B1,Kd (full-length Pin1 (1–163) [1]): 4 µM
–,"pSer62-c-Myc_(1–88) (domain or fragment, human, UniProt P01106-1 1-88, looked up, phosphoserine at 62) MPLNVSFTNRNYDLDYDSVQPYFYCDEEENFYQQQQQSELQPPAPSEDIWKKFELLPTPPLSPSRRSGLCSPSYVAVTPFSLRGDNDG",Kd (full-length Pin1 (1–163) [2]): 10 to 100 µM
> 10,"Pin1_(PPIase) (50–163) (domain or fragment, human, UniProt Q13526 50-163, looked up) GEPARVRCSHLLVKHSQSRRPSSWRQEKITRTKEEALELINGYIQKIKSGEEDFESLASQFSDCSSAKARGDLGAFSRGQMQKPFEDASFALRTGEMSGPVFTDSGIHIILRTE",–
